In patent publication US20170081400A1 (CEPHALON, published 2017):
Changes are numbered by the printed parent chain.

T1: human TL1A extracellular domain with N-terminal HIS and FLAG tag (human, UniProt O95150 72-251)
T1 construct: the whole entry is named; also called TNFSF15
T1 sequence: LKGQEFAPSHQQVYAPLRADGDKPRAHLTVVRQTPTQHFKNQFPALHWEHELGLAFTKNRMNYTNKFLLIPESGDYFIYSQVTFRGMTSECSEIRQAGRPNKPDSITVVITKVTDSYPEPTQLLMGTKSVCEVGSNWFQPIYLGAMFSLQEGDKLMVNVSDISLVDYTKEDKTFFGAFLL

B1: 320-509 (antibody, human IgG1, name in Kabat numbering, V domains shown)
VH: QVQLVQSGAEVKKPGASVKVSCKASGYTFTSYDINWVRQAPGQGLEWMGWLNHNSGNTGYAQKFQGRVTMTADRSTSTAYMELSSLRSEDTAVYYCAREVPETAAFEYWGQGTLVTVSS
VL: QSVLTQPPSVSGAPGQRVTISCTSSSSDIGAGLGVHWYQQLPGTAPKLLIEGYYNRPSGVPDRFSGSKSGTSASLTITGLLPEDEGDYYCQSYDGTLSALFGGGTKLTVLG
notes: full-length human IgG1, lambda
B2: 320-512 (antibody, human IgG1, name in Kabat numbering, V domains shown)
VH: B1 VH with H53W
VL: B1 VL
notes: as for B1
B3: 320-522 (antibody, human IgG1, name in Kabat numbering, V domains shown)
VH: B1 VH with H53P, N54Y
VL: B1 VL
notes: as for B1
B4: 320-530 (antibody, human IgG1, name in Kabat numbering, V domains shown)
VH: B1 VH with H53P, S55Y
VL: B1 VL
notes: as for B1
B5: 320-516 (antibody, human IgG1, name in Kabat numbering, V domains shown)
VH: B1 VH with H53P, N54Q
VL: B1 VL
notes: as for B1
B6: 320-514 (antibody, human IgG1, name in Kabat numbering, V domains shown)
VH: B1 VH with H53P, N54A
VL: B1 VL
notes: as for B1
B7: 320-515 (antibody, human IgG1, name in Kabat numbering, V domains shown)
VH: B1 VH with H53P, N54S
VL: B1 VL
notes: as for B1
B8: 320-525 (antibody, human IgG1, name in Kabat numbering, V domains shown)
VH: B1 VH with H53P, S55D
VL: B1 VL
notes: as for B1
B9: 320-524 (antibody, human IgG1, name in Kabat numbering, V domains shown)
VH: B1 VH with H53P, S55Q
VL: B1 VL
notes: as for B1
B10: 320-523 (antibody, human IgG1, name in Kabat numbering, V domains shown)
VH: B1 VH with H53P, S55A
VL: B1 VL
notes: as for B1
B11: 320-536 (antibody, human IgG1, name in Kabat numbering, V domains shown)
VH: B1 VH with H53P, G56K
VL: B1 VL
notes: as for B1
B12: 320-538 (antibody, human IgG1, name in Kabat numbering, V domains shown)
VH: B1 VH with H53P, G56W
VL: B1 VL
notes: as for B1
B13: 320-535 (antibody, human IgG1, name in Kabat numbering, V domains shown)
VH: B1 VH with H53P, G56H
VL: B1 VL
notes: as for B1
B14: 320-539 (antibody, human IgG1, name in Kabat numbering, V domains shown)
VH: B1 VH with H53P, N57A
VL: B1 VL
notes: as for B1
B15: 320-534 (antibody, human IgG1, name in Kabat numbering, V domains shown)
VH: B1 VH with H53P, G56D
VL: B1 VL
notes: as for B1
B16: 320-529 (antibody, human IgG1, name in Kabat numbering, V domains shown)
VH: B1 VH with H53P, S55W
VL: B1 VL
notes: as for B1
B17: 320-513 (antibody, human IgG1, name in Kabat numbering, V domains shown)
VH: B1 VH with H53Y
VL: B1 VL
notes: as for B1
B18: 320-520 (antibody, human IgG1, name in Kabat numbering, V domains shown)
VH: B1 VH with H53P, N54L
VL: B1 VL
notes: as for B1
B19: 320-519 (antibody, human IgG1, name in Kabat numbering, V domains shown)
VH: B1 VH with H53P, N54K
VL: B1 VL
notes: as for B1
B20: 320-540 (antibody, human IgG1, name in Kabat numbering, V domains shown)
VH: B1 VH with H53P, N57S
VL: B1 VL
notes: as for B1
B21: 320-537 (antibody, human IgG1, name in Kabat numbering, V domains shown)
VH: B1 VH with H53P, G56L
VL: B1 VL
notes: as for B1
B22: 320-528 (antibody, human IgG1, name in Kabat numbering, V domains shown)
VH: B1 VH with H53P, S55L
VL: B1 VL
notes: as for B1
B23: 320-527 (antibody, human IgG1, name in Kabat numbering, V domains shown)
VH: B1 VH with H53P, S55K
VL: B1 VL
notes: as for B1
B24: 320-532 (antibody, human IgG1, name in Kabat numbering, V domains shown)
VH: B1 VH with H53P, G56S
VL: B1 VL
notes: as for B1
B25: 320-518 (antibody, human IgG1, name in Kabat numbering, V domains shown)
VH: B1 VH with H53P, N54H
VL: B1 VL
notes: as for B1
B26: 320-531 (antibody, human IgG1, name in Kabat numbering, V domains shown)
VH: B1 VH with H53P, G56A
VL: B1 VL
notes: as for B1
B27: 320-510 (antibody, human IgG1, name in Kabat numbering, V domains shown)
VH: B1 VH with H53K
VL: B1 VL
notes: as for B1
B28: 320-541 (antibody, human IgG1, name in Kabat numbering, V domains shown)
VH: B1 VH with H53P, N57Q
VL: B1 VL
notes: as for B1
B29: 320-542 (antibody, human IgG1, name in Kabat numbering, V domains shown)
VH: B1 VH with H53P, N57D
VL: B1 VL
notes: as for B1
B30: 320-521 (antibody, human IgG1, name in Kabat numbering, V domains shown)
VH: B1 VH with H53P, N54W
VL: B1 VL
notes: as for B1
B31: 320-533 (antibody, human IgG1, name in Kabat numbering, V domains shown)
VH: B1 VH with H53P, G56Q
VL: B1 VL
notes: as for B1
B32: 320-511 (antibody, human IgG1, name in Kabat numbering, V domains shown)
VH: B1 VH with H53L
VL: B1 VL
notes: as for B1
B33: 320-526 (antibody, human IgG1, name in Kabat numbering, V domains shown)
VH: B1 VH with H53P, S55H
VL: B1 VL
notes: as for B1
B34: 320-517 (antibody, human IgG1, name in Kabat numbering, V domains shown)
VH: B1 VH with H53P, N54D
VL: B1 VL
notes: as for B1
B35: 320-543 (antibody, human IgG1, name in Kabat numbering, V domains shown)
VH: B1 VH with H53P, N57H
VL: B1 VL
notes: as for B1

The binders below were run against T1, human TL1A extracellular domain with … (assay: SPR Run 7, antibody on Protein A, TL1A 5 ug/mL, timepoint 220).
From the text: (§1) 1.5. Antibody expression and antigen binding as determined by SPR. Using a CM5 sensor chip (GE Healthcare) Protein A (Pierce) was coupled to the chip surface using an amine coupling kit (GE Healthcare). Protein A was coupled on flow cell 1 and 2 (or alternatively 3 and 4) using a BIACORE® T200. […] The amount of supernatant or purified protein (as well as the concentration) injected during the capture stage varied between runs and is specified in the header of the Tables 3-11. At the end of injection of the supernatant or purified antibody the change in response units was measured. This value was reported as Capture Level in Tables 3-11. […] The response units were measured prior to the end of the dissociation phase. […] The sensorgrams were double referenced (flow cell 2 is subtracted from flow cell 1 and a buffer blank). As there were a large number of antibody variants to screen, these were screened across different runs (Tables 3-11). […] A summary of the conditions used in each run is below:
(§2) 2.1. […] In some experiment the antibodies were purified using Protein A chromatography (See 1.4) and purified antibodies were used in BIACORE® (GE Healthcare) experiments.

| TL1A Binding Level (Late) [RU] | Binder |
| --- | --- |
| 47 | B1 |
| 118 | B2 |
| 129 | B3 |
| 67 | B4 |
| 86 | B5 |
| 88 | B6 |
| 67 | B7 |
| 17 | B8 |
| 49 | B9 |
| 82 | B10 |
| 105 | B11 |
| 49 | B12 |
| 115 | B13 |
| 159 | B14 |
| 102 | B15 |
| 83 | B16 |
| 90 | B17 |
| 162 | B18 |

| TL1A Binding Level (Late) [RU] | Binder |
| --- | --- |
| 196 | B19 |
| 92 | B20 |
| 123 | B21 |
| 108 | B22 |
| 136 | B23 |
| 7 | B24 |
| 153 | B25 |
| 61 | B26 |
| 33 | B27 |
| 84 | B28 |
| 86 | B29 |
| 152 | B30 |
| 86 | B31 |
| 98 | B32 |
| 124 | B33 |
| 50 | B34 |
| 126 | B35 |

The binders below were run against T1, human TL1A extracellular domain with … (assay: SPR Run 7, antibody on Protein A, TL1A 5 ug/mL, timepoint 44).
From the text: as §1, §2

| TL1A Binding Level (Early) [RU] | Binder |
| --- | --- |
| 52 | B1 |
| 126 | B2 |
| 141 | B3 |
| 77 | B4 |
| 92 | B5 |
| 96 | B6 |
| 73 | B7 |
| 33 | B8 |
| 55 | B9 |
| 88 | B10 |
| 115 | B11 |
| 54 | B12 |
| 126 | B13 |
| 172 | B14 |
| 109 | B15 |
| 94 | B16 |
| 99 | B17 |
| 174 | B18 |

| TL1A Binding Level (Early) [RU] | Binder |
| --- | --- |
| 217 | B19 |
| 100 | B20 |
| 133 | B21 |
| 121 | B22 |
| 146 | B23 |
| 10 | B24 |
| 169 | B25 |
| 66 | B26 |
| 44 | B27 |
| 94 | B28 |
| 97 | B29 |
| 166 | B30 |
| 93 | B31 |
| 106 | B32 |
| 134 | B33 |
| 55 | B34 |
| 138 | B35 |
